From a protein production outcome set (Wang et al. 2014) come the findings set out here.

A short description of this data set: label from the status in PepcDB records.
With “MQAALEVTARYCGRELEQYGQCVAAKPESWQRDCHYLKMSIAQCTSSHPIIRQIRQACAQPFEAFEECLRQNEAAVGNCAEHMRRFLQCAEQVQPPRSPATVEAQPLPAS”, the protein production entry is listed as “failed”.

With “MQADPAIRRFAKKRNKRVDRMILDSNYMHTSIDRYFPNESKRRGRPDIIYLLLEMTQESILNHKNQLRTYVHTRNNQVIRISPITRMPKSYNRFIGLFEDLFEKRIITNNGKELLSMEESSLGDLINSIRRDRTILLHPKGEMRKPSEFISNANILIVIGGFSEGDFISDTSFINERYAIFDQELTIWSVANEMVANYERAVGLTLEHHHHHH”, the protein production result is listed as “not failed”.

For the sequence “MQAFFANPAVSWTLLTTGGILLVVIWVLLSLAFLLLADRKIWAGVQMRKGPNVVGPFGLLQSFADFFKFVLKEIVIPAGADKVVFILAPLISLILAFVGWAVVPFAPGWVVSNLNVGILYLLAMSSLGVYGIIMGGWASNSKYPFLGALRSAAQMVSYEVSIGLIIITVILLAGSMNLSTIVEKQSGWIWNWNVFGGGLNNLVLLPVMVVAMGMFYISALAETNRPPFDLPEAESELVAGYQVEYSSTPYLLFMVAEYSNIVLMCAMISVLFFGGWNPGFPTDFLSSWHPFAANLFLALVFYAKICFWFFMFAMAKAIVPRYRYDQLMRLGWKVFLPTSLVLVAAVAAWRVFGPAA”, the protein production result is given as “failed”.

With “MQAMTERLEAMLAQGTDNMLLRFTLGKTYAEHEQFDAALPHLRAALDFDPTYSVAWKWLGKTLQGQGDRAGARQAWESGLAAAQSRGDQQVVKELQVFLRRLAREDAQHGG”, the protein production entry was “failed”.

Consider “MQAVHGRSRKPADPAYQAGLAEELRQSYGRAGLIELYGRFATGDGVVDSLMRKAIWQAITRRCGEGLQVASGAGFKHPETFEIGDGVFIGAQAYIQGRYDGTCVIGDNVWIGPMAYFDARDLVIEDSVGWGPGAKVLGSTHTALPIDVPIIRTDLEIRPVRICAEADIGTNATILPGVTIGKGAIVGAGAVVVSDVEPFSVAAGVPAKFIRWRSENDPMTNMSREGRS”, for which the protein production result was “failed”.

In the case of “MQCNVCEFGCEIDEYSRGRCRTYVCTGDTIIQDPDMGYLGAYPVSIETIPLLHYYPSGKFLQVFGTGCNFQCSGCVARLLASGKSLSSTTLTPSQVVEKALQQDCLGVVSTLNEPAANYYLFRDLAVQAKEKGLLVGCSTNCYFTEETLNKLGQLVDFMNVGIKGYSDRSYISCGVPSSAPVFRNISLLFDMGVHVETSVVYSRGNEADVIKVAEAVSDISPTIPVQVMRFIPFGDAPIELEPSVGEAESLCADLRKYVDYVYLFNSPGTELLNTYCPECGSLLAEREFYGPMGSRPVRPWITYSCDCGKTVPVKGTTAVERFNEEGFMGGYRISRAFGMVHGVLTCLGILDDSRLIDVWREISDSGTLMKVHHMIQQPYAYLDFVRLIAERANMPEKGEELISFIHTRLELVKSLAAENSGHKVYYCMGSPLFALNAGRMENNLVAFSGGLSINKQLQKEGKPGINVSPSFINENNPDTIFISGFLSRPLDEFYTLCRQYGIETDAVKQQRVYEVPPSWDFGNPRWILGLMYIADKLYPGNSGIDLEKEADEFYRQFYGMPYLEHHHHHH”, the protein production result was “not failed”.

As to “MQDELVILSSIASIMVAIIVLILFYIEKIRTYVGVFFVYFSLTMMIAMFVGASIYLLYPSRVSLAIAFGINTFIMIPLIAYFLLKIAKLANTPFRGERTHVVIFSILLVLNEILMGTTFGIAQFGFSRFSNLYYSLYFSINSYWFFYPMMAEMLALYLLHYLKGSINRELFPLIGLATFPPTAFDYQEWFYSALIFSLAFSILGSILSKRLWRYVYLMLILSELILLINAIPYDIAIAISMILYYYQSLLPLRR”, the protein production entry is listed as “failed”.

Consider “MQDFRFVAAAIVFIFTLILVTVRPWKIDIGYGALIGAFVSIILGISTPADVIKVWNIIWNPTFTFVAIIAMSLVLDYAGFFEYYAIRISKFAGGNGIKLFVFIVILGSLTAAFFANDGAVLVLTPIVLSIMDMTGIGKKGAVAYIMAIGFISDSSSLPFVISNLVNIIGSGYFGISFASYAKVMVIPDIISVVSSLGLLLLYYRKDIPRIYQVESLPNPKNVIKDPLIFKLAFPFMAIVVLAYFLTSFDLVPVSFVAVPAATILIVVARYNHRINTRSIIAEAPWQVVVFSLGMYIVVYGFGDNGLTSVLVHVTKSILLLGNPLSTVLAGLLFGAMAGSMNNLPSVMMGALTISHLNQNSFLIYANVIGNDIGPKFTPIGSLATLLWIYTLQRKHGVQITPIYYMKVGFIIAFPVLVLTLLSLYATIYFGL”, for which the protein production result is recorded as “failed”.

For the sequence “MQDGFLTVSIIDATNNRPIQNAVVNIYSMSNGSQSSSTLYQNLRSNESGQVTGLVLPAPDVDYSLQPSDVRPYSQYIVEAIADGYETVVIEGTQLLATIEARQGVPMSPRTRSKRSFSRQSELIFDIGEHTLYGTYPPKIPESNLKPLPPPTGFVVLDNPVVPEFIVVHDGLPEDSSAPNYWIPFKEYIKNIASSEIYSTWPEQTIYANVIAIISFTLNRVFTEWYRNKGYNFTITSTTAYDHKFINNRNLFEPINVVVDAIFNTFIKRPPTSRQPLLAQYCDGQKSQCPDQMTQWGSKDLGDQGYDYESILRYFYGDEIVFERAPIVSGVPVSFPGTTLQVGSSGQYVRTIQNQLNAISNSYPAVPKVIEDGIYGTDTENAVKIFQGIFGLPQSGVVDFKTWYEISRVYVATTRIASLNPLILEHHHHHH”, the protein production result is recorded as “not failed”.

As to “MQDKNFDKLAQKFAKNIYGTPKGEIRAAVLWRDLAPALAQFGDKKLRILDAGGGFGYFSQKLARLGHEVVLCDISAEMLAQAKEQIDASDTPLAIRLVHAPIQALSITEHGMFDLILCHAVVEWLADAKTTMEGLLTMLKPNGLFSLMFYNKEAMRFHALVSGNFDYVAADLKVKKKVRLTPTHPLYIHEVKLWFAQWQMALLKESGVRVIHDYLKKQQAADFDYQKLLSMELEYSQREPYISLGRYVHFLGQSTATHSELEHHHHHH”, the protein production result was “not failed”.

Take “MQDNNARFPTIAKVLILRQFLWGAAFYGAFVLLTKFFLDDLNYSEADTIMMMGAFGAVGPVFSAVGGFLADKFIGAFRAVYIGYATYLAGFLLLGIGASQLNVPMSILAIALIGFARGLSATCPTVLFGNSYSETNREAFQQGLTVNYSINNLGSFSAKYLFPFLIAYLAYQGVFFVSAILMALNLLMFYKFRKELVSVGNDLDKTPLPLKTWVMFFAGSAAMLGLIFWIFSNLETGKYILYTLGFGAIGYFIYEITQATRAYQYKMVAVLITVCILIVFYFFYGQMFTSMNMYAINLMDDTLLGFIPIHPESNMAFNPLWCFVLGGPMIQLYAWLDRKGYSPTIPTKIAGAFMLSTIAFGLLGLSAGSIGENGKISADWILLVHFFQSGAELIVGALGAGFIFEMVPRYLAAFSIGLRAVAISLSGILAAVIATKIALPKDIVFTPEVVETVYTSYFYMLAQVAAFMAILTLGLSKVIQKLIARGEALEAEEKVDTTMRSNIG”: the protein production result is “failed”.

Regarding “MQDSLGIMIKKANNALARDSDHYAKSLGLTGMQISTINFIANNEQHHDLFQRDLELEFNIRKATCSSLVSKMEAADLLIRVPAKDDGRYKRLLLTPKARQLATKIERFFETSEQRMATILGVNTAETYEALRQIAVAFSTPTHAPENWYLEHHHHHH”, the protein production result is recorded as “not failed”.

In the case of “MQDSRPHPHDWNVSTDEAKRIQRRLASEVTERALPDGGETVAGIDVSVRDDTAQAAVSVLRLPELDVVDEATHRCEVPFPYVPGLLSFREMPAVLPALERLHSTPDVFVTDSHGAAHPRRFGLACHLGVLLDAPAIGVAKSILVGAPQGELGPEKGSRVPLVDDGETVGTVLRTRTDVNPVYVSVGHRCTLDGAADLMLDCSPRYKIPEPTRQAHKLSRAEGLEHHHHHH”, the protein production result is on record as “not failed”.

As to “MQDTLPSRREIAPDSTRPPPTHDDVRAQLNRIITSPQFPHIGRSAAFLTYAVEETLAGRADRIKGYSIAVEVFKRSNGFTQDDPVVRIEAGRLRRVLERYYFTAGQHDPIRIDIPKGGYVPTFAWTSPSEDNSDAEDQSLPPEHASSLFPGLRRHIWTVVLGLIVIVGGASALAGLTSIRFSSIWPFATADITESDGPTLVIAPFANLGDGPQAELYTTGLTEELLTALPRFKEIKVFGRETSRSLPPEVETSRIRGELGARFLLAGGVRVSGSRVRVTARLLDTQTDEILWSQTYDDDIGVRDLFTIQSDVANKVATAVAQPYGIMAQADVSNPPPDDLGSYGCTLSFYAYRAELSIERHGEVRNCLESAVARYPSFATAWAMLSIIYLDEDRFRFNRKPISSTPIDRSFQAARRAVQLDPGNTRALQALMTTLFFSQRVSEALQIGERALATNPNDTELLAEFGTRLAMSGEWQRGAALLDRAIALNPAGGGYYRGTRALAAYMLHDDKTAVIEIRQADLQKFPLFHAVAAVIYVDAGMIDDARSEAARFNEMRPDFIPNIVAELKVRNFQPQDRARMIADLRTAGLLVRDEVQATMSLPIDDSKALQPR”, the protein production result was “failed”.
